Series [1] has as its target T1, terpene synthase (TPS; OncSBTPS) (Oncidium hybrid cultivar, UniProt A0A3R5SMM9).
T1 construct: recombinant purified protein
T1 sequence (A0A3R5SMM9 1-551): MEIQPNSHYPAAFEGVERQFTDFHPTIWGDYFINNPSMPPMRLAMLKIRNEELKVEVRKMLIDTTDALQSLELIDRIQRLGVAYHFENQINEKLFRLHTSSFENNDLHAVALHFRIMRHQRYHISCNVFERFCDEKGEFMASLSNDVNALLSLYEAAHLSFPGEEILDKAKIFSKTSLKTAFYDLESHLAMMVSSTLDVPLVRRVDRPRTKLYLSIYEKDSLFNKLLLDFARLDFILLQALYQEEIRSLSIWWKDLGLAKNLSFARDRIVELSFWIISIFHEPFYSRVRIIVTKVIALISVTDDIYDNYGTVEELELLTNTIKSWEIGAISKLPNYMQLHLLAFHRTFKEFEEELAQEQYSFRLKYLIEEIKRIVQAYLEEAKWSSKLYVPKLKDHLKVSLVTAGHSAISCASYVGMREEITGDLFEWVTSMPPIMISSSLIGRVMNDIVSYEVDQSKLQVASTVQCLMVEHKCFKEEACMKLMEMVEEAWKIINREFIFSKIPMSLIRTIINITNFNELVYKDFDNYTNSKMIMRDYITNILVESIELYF
Briefly: GC-MS (SPME) of reaction products. The conditions noted are these: 37 °C, 4 h; products linalool and ocimene. The class given is biochemical.

Series [2] deals with T2, OncSBCCA1 (Oncidium hybrid Sharry Baby, UniProt A0A7L5RYG3 1-622). Put plainly: EMSA; 0-15 ug CCA1 in 10 uL; BSA; 10 uL with 2 uL 5X buffer (5X: 50 mM Tris-HCl, 750 mM KCl, 2.5 mM EDTA, 62.5% glycerol), i.e. 1X 10 mM Tris-HCl, 150 mM KCl, 0.5 mM EDTA, 12.5% glycerol; BSA; 30 min; pH and temperature not stated; native PAGE in 0.5X TAE, 150 V. The conditions noted are these: protein: recombinant; tags: His-tag (pET28a); label: 6-FAM (ligated with T4 ligase). (A gel shift assay detects complexes by their altered migration in electrophoresis.)
T2 sequence (A0A7L5RYG3 entry or part of it): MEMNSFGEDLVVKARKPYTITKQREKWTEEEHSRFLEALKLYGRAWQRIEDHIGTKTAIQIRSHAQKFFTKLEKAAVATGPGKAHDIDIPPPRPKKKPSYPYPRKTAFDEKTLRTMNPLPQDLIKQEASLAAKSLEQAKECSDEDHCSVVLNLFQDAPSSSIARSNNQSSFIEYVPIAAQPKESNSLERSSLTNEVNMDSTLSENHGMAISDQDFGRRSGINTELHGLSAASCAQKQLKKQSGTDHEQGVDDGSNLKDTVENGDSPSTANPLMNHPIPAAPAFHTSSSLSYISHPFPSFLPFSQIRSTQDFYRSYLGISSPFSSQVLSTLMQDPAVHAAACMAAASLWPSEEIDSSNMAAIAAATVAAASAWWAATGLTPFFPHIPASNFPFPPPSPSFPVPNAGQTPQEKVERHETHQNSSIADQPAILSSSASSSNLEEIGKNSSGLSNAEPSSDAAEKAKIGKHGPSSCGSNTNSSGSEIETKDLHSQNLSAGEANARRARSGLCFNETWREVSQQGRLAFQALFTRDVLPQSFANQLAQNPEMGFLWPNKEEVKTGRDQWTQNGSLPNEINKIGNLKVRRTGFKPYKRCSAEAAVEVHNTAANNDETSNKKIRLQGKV

The target of series [3] is T2, OncSBCCA1. Briefly: competition; 50x unlabeled competitor abolished the CCA1-probe signal; 10 uL with 2 uL 5X buffer (5X: 50 mM Tris-HCl, 750 mM KCl, 2.5 mM EDTA, 62.5% glycerol), i.e. 1X 10 mM Tris-HCl, 150 mM KCl, 0.5 mM EDTA, 12.5% glycerol; BSA; 30 min; pH and temperature not stated; native PAGE in 0.5X TAE, 150 V. As to conditions: protein: recombinant; tags: His-tag (pET28a).

The values that follow come from PMC9531428, “The diurnal emission of floral scent in Oncidium hybrid orchid is controlled by CIRCADIAN CLOCK ASSOCIATED 1 (CCA1) through the direct regulation on terpene synthase” (BMC Plant Biology, 2022).

With `CC(C)=CCC/C(C)=C/COP(=O)(O)OP(=O)(O)O` [GDP, geranyl diphosphate], the “GC-MS (SPME) of reaction products” value in series [1] is recorded as “TPS recombinant protein was purified, then fed with the precursor GDP”.

B1: CBS probe (TPS promoter, 24-mer) (dsDNA)
DNA 1: TATTTTAGAGATTTTTACATACAT
DNA 2: ATGTATGTAAAAATCTCTAAAATA
For B1, the binding result in the series with OncSBCCA1 [2] is given as “binds”.

B2: unlabeled CBS competitor (24-mer) (dsDNA)
DNA 1: TATTTTAGAGATTTTTACATACAT
DNA 2: ATGTATGTAAAAATCTCTAAAATA
On to B2, for which the binding result in the series with OncSBCCA1 [3] was “binds”.
